Experimental data: patent publication US20030054535A1, “Endoglucanase mutants and mutant hydrolytic depolymerizing enzymes and uses thereof” (priority 1999, published 2003)
Changes are numbered by the printed parent chain. In names and notes the source's numbering stands.

B1: Acidothermus cellulolyticus EI endoglucanase (Cel5A) catalytic domain, native (wild type), SEQ ID NO:3 of U.S. Pat. No. 5,536,655 (Acidothermus cellulolyticus … (protein)
chain: AGGGYWHTSGREILDANNVPVRIAGINWFGFETCNYVVHGLWSRDYRSMLDQIKSLGYNTIRLPYSDDILKPGTMPNSINFYQMNQDLQGLTSLQVMDKIVAYAGQIGLRIILDRHRPDCSGQSALWYTSSVSEATWISDLQALAQRYKGNPTVVGFDLHNEPHDPACWGCGDPSIDWRLAAERAGNAVLSVNPNLLIFVEGVQSYNGDSYWWGGNLQGAGQYPVVLNVPNRLVYSAHDYATSVYPQTWFSDPTFPNNMPGIWNKNWGYLFNQNIAPVWLGEFGTTLQSTTDQTWLKTLVQYLRPTAQYGADSFQWTFWSWNPDSGDTGGILKDDWQTVDTVKDGYLAPIKSSIFDPVG
B2: Acidothermus cellulolyticus EI endoglucanase (Cel5A) catalytic domain variant W42R, SEQ ID NO:1 (Acidothermus cellulolyticus 11B; W83R) (protein)
chain: AGGGYWHTSGREILDANNVPVRIAGINWFGFETCNYVVHGLRSRDYRSMLDQIKSLGYNTIRLPYSDDILKPGTMPNSINFYQMNQDLQGLTSLQVMDKIVAYAGQIGLRIILDRHRPDCSGQSALWYTSSVSEATWISDLQALAQRYKGNPTVVGFDLHNEPHDPACWGCGDPSIDWRLAAERAGNAVLSVNPNLLIFVEGVQSYNGDSYWWGGNLQGAGQYPVVLNVPNRLVYSAHDYATSVYPQTWFSDPTFPNNMPGIWNKNWGYLFNQNIAPVWLGEFGTTLQSTTDQTWLKTLVQYLRPTAQYGADSFQWTFWSWNPDSGDTGGILKDDWQTVDTVKDGYLAPIKSSIFDPV
notes: the protein was genetically truncated near the beginning of the linker peptide; made in house; host or cells: E. coli XL1-blue
B3: Acidothermus cellulolyticus EI endoglucanase (Cel5A) catalytic domain variant Y82R, SEQ ID NO:2 (Acidothermus cellulolyticus 11B; Y123R) (protein)
chain: B2 chain with R42W, Y82R
notes: as for B2
B4: Acidothermus cellulolyticus EI endoglucanase (Cel5A) catalytic domain variant Y245G, SEQ ID NO:3 (Acidothermus cellulolyticus 11B; Y286G) (protein)
chain: B2 chain with R42W, Y245G
notes: the mutant and wild type Cel5A catalytic domains were purified using the purification methods described above; made in house; host or cells: E. coli XL1-blue

Experiments:
[1] = substrate: OC[C@H]1O[C@@H](O[C@H]2[C@H](O)[C@@H](O)[C@H](O[C@H]3[C@H](O)[C@@H](O)C(O)O[C@@H]3CO)O[C@@H]2CO)[C@H](O)[C@@H](O)[C@@H]1O; assay: purified protein, by the assay type; settings: other: cellotriose, 5 mM acetate pH 5.0, 50 degrees C, 50.0 °C
[2] = substrate: OC[C@H]1O[C@@H](O[C@H]2[C@H](O)[C@@H](O)[C@H](O[C@H]3[C@H](O)[C@@H](O)C(O)O[C@@H]3CO)O[C@@H]2CO)[C@H](O)[C@@H](O)[C@@H]1O; assay: purified protein, by the assay type; format: biochemical, Acidothermus cellulolyticus; settings: other: cellotriose, 5 mM acetate pH 5.0, 50 degrees C, 50.0 °C
Method: Each assay mixture was pre-incubated at 50 degrees C. for 10 min. prior to the addition of 0.00272 micromolar (0. 1092 microgram/mL) enzyme, which was also made up in 5 mM acetate buffer with 10 microgram/mL BSA. The final assay volume was 0.1 mL.
At set-time intervals, an aliquot of the reaction mixture was pulled and immediately analyzed for the release of cellobiose using a Dionex DX300 chromatography system and a Dionex PAD2 pulsed amperometric detector having a gold working electrode. The response of this detector was optimized for the detection of carbohydrates using a waveform defined by the following time and potential settings: t1=420 msec.; EI=+0.05 V; t2=180 msec.; E2=+0.75 V; t3=360 msec.; and E3=−0.15 V. Separation of the reaction products, from the substrate, was achieved on a Dionex CarboPac PA-1 analytical (4×250 mm) column equipped with CarboPac PA-1 (4×50 uard column, 500 mM sodium hydroxide eluent, and a flow rate of 1.5 mL/min. The amount of cellobiose present for each time-point-sample was quantified by comparing the area of the cellobiose peak against a linear calibration curve. The kinetic constants were determined with a double-reciprocal-plot, where the reciprocal of the rate of cellobiose produced was plotted as a function of the inverse of the substrate concentration.
Michaelis-Menten kinetics of the mutant EI enzymes and the native enzyme were determined.

Row | Protein | Km [1] | Vmax [1] | Km [2] | Vmax [2]
1 | B1 | 350 µM | 0.86 µM/min | – | –
2 | B2 | – | – | 610 µM | 0.99 µM/min
3 | B3 | – | – | 690 µM | 1.5 µM/min
4 | B4 | – | – | 480 µM | 0.85 µM/min
